Assay results reported in paper doi:10.1101/492215.

Target: HTT^1-3144 Q23, C-terminally FLAG-tagged (human)
Test: SEC-MALS

For “HTT^1-3144 Q23, C-terminally FLAG-tagged (natural protein)”, the stoichiometry N was 2.
